Positions count from the first letter of the chain named.
T1: mouse IL-2Rβ (mouse) (UniProt P16297)
T1 sequence (looked up): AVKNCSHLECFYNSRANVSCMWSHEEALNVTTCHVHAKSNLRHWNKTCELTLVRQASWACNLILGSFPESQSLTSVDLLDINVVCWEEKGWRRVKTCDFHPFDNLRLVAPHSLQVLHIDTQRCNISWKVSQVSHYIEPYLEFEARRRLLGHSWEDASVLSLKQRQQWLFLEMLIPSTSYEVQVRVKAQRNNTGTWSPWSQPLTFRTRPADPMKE

B1: FJ1427_P035MP02F11 (VHH)
VHH: EVQLVESGGGLVQAGGSLRLSCAASGRDFSSYAMGWFRQAPGKEREFVVAITWTKRSTDFPDSVKGRFTISRDNAKNTVYLDMNSLKPEDTAVYYCASARGLPVTPLGDIIYWGEGTLVTVSS
B2: FJ1427_P035MP02G11 (VHH)
VHH: B1 VHH with E1Q, V2L
B3: FJ1427 P035MP02D11 (VHH)
VHH: QVQLQESGGGLVQAGDSLRISCAASGRIFSNYAMGWFRQAPGKETEFVAGITHLTSTTHYADSVKGRFTISRDNAKNTMHLQMNNLKPEDTALYYCAADRNIKITADWSYWGQGTQVTVAS
B4: FJ1427 P035MP02E11 (VHH)
VHH: QVQLQESGGGLVQAGGSLRLSCAASGRTFSNYVMAWFRQAPGKEREFVGAITQTGRGTFYADSVEGRFTISRINDKNTVYLQMNSLKPEDTAVYYCSAPRSGRAGTRNQMDYEYWGQGTQVTVSS
B5: FJ1427 P035MP02C03 (VHH)
VHH: EVQLVESGGGLVQTGGSLRLSCAASGSQFINDVMGWYRQVPGKQRELVADMDDTGSTEYADSVKGRFTILRDSVKNTAYLQMSNLKPEDTGVYYCKAGLWIKGRHFDYWGQGTQVTVSS
B6: FJ1427 P035MP02E06 (VHH)
VHH: QVQLVESGGGSVQPGGSLRLSCAASGFTFSNYAMSWVRQAPGKGLEWVASITGFGRGTDYADSVKGRFTISRDNAEDTLYLQMNSLKPEDTAVYYCAKYSSSTYYPPTPARGRDYRGQGTQVTVSS
B7: FJ1427_P035MP02B08 (VHH)
VHH: EVQLVESGGGLVQAGGSLRLSCAASGRAIENYPVGWFRQAPGKEREFVAAITWISGSTLYADSVKGRFTISRDNAKNTVYLQMSSLKPEDTALYYCAAALKTITRGQNDYSYWGQGTQVTVSS
B8: FJ1427_P035MP02C09 (VHH)
VHH: QVQLQESGGGLVQAGGSLRLSCVASGSVSSINGMAWYRQGADNQRVLVAAISRVGNTAYGDSVKGRFTISRQNARNTVYLQMNSLKPEDTAVYYCNADSWGGDDYWGQGTQVTVSS
B9: FJ1427_P035MP03C03 (VHH)
VHH: QVQLVESGGGLVQPGGSLRLSCAISGGTLDSYGIGWVRQAPGKQREGVSCMSRSDDRTYYADSVKGRFTISKDSAKNTVYLQMTSLKPEDTAVYYCAAVDAYGCSLVQPTTYDFWGLGTQVTVSS
B10: FJ1427_P035MP03F08 (VHH)
VHH: EVQLVESGGGLVQTGGSLRLSCAASGGTFSRDAMAWFRQVPGKEREFVALISWSGATTNYADSVKGRFAISRDNGKNTVYLQMNRLKPADTAIYYCAADRRPMGSRSYFEPTEYDDWGQGTQVTVSS
B11: FJ1427_P035MP03F10 (VHH)
VHH: B1 VHH
B12: FJ1427 P035MP03A12 (VHH)
VHH: EVQLVESGGGLVQAGGSLRLSCAASGRTFSINAMGWFRQAPGKEREFVAAISRSGGSTVYVDGVKGRFTISRDNAKNTVYLQMNSLEPEDTAVYYCAATMAVGWTTRWRTADFDSWGQGTQVTVSS
B13: FJ1427_P035MP03F12 (VHH)
VHH: EVQLVESGGGLVQAGGSLRLSCAASGSIFSINAMAWFRQVPGMERELVAAISRDGGASVYRDSVKGRFTISRDNSKNTVYLQMNTLKPEDTAIYVCAATRAIGWTARWITTDFDFWGQGTQVTVSS
B14: FJ1427 P035MP06E05 (VHH)
VHH: QVQLVESGGELVQGGASLRLSCAASGRTFSNANMAWFRQAPEKEREFVALITWSSGSTLYADSVKGRFTISRDNARKMVYLQMNSLKPEDTAVYYCAADGPPYSGTYYRYDTYDYWGQGTQVTVSS
B15: FJ1427_P035MP06F05 (VHH)
VHH: QVQLVESGGGLVQTGDSLRLSCAASGRSLDTTYIAWFRQAPGKERDFLAYISPRFSHTWYADSVKGRFTISRNIAKRTVDLEMNSLEPEDTAVYYCAAREHSGSTAWEHYDHWGQGTQVTVSS
B16: FJ1427_P035MP02A01 (VHH)
VHH: QVQLVESGGGLVQTGGSLRLSCVVSGSHFISDVMGWYRQVPGKQRELVADMADGGSAKYGDSVKGRFTILRDSVKNTVYLQMSSLNPEDTGVYYCKAGLWITGRHSDYWGQGTQVTVSS
B17: FJ1427_P035MP02B01 (VHH)
VHH: B5 VHH with E1Q, E58K
B18: FJ1427 P035MP02C01 (VHH)
VHH: B6 VHH with S11L, R19G, S30D, A49S, F54A, D59H, E76K, D77N, R113T, Q118P
B19: FJ1427 P035MP02D01 (VHH)
VHH: B5 VHH with E1Q, V5Q, E58K, F106S
B20: FJ1427_P035MP02E01 (VHH)
VHH: EVQLVESGGGLVQIGGSLRLSCAASGRTFSSITMAYFRQVPGKEREWVAGINFSGTRTFYADSVKGRFLISRDDAKSTMYLQMNSLKPEDTAVYYCAASPRGFYGPGNALYDYWGQGTQVTVSS
B21: FJ1427_P035MP02F01 (VHH)
VHH: B16 VHH with Q1E, V23A, H28R, G60A, T68S, N86K, V92I, T102A
B22: FJ1427_P035MP02G01 (VHH)
VHH: B16 VHH with V23A, H28R, G60A, T68S, V74A, N86K, V92I, T102A
B23: FJ1427_P035MP02H01 (VHH)
VHH: B6 VHH with S11L, R19G, S30D, A49S, F54A, D59H, E76K, D77N, R113T, Q118P
B24: FJ1427_P035MP02A02 (VHH)
VHH: QVQLVESGGGLVQPGGSLRLSCAASGFTFDNYAMTWVRQAPGKGLEWVSSITGAGRGTHYADSVKGRFTISRDNAKNTLYLQVNSLKPEDTAVYYCARYSSSTYYPTTPVRGTDYRGQGTQVTVSS
B25: FJ1427_P035MP02B02 (VHH)
VHH: B16 VHH with Q1E, G10T, L70V, T102K, S118T
B26: FJ1427_P035MP02C02 (VHH)
VHH: QVQLVESGGGLVQPGGSLRLSCAASGSRFVSDFMGWYRQVPGKQRELVADMADGGSARYGDSVKGRFTILRDNMNSTAFLQMSSLKPEDTGVYYCKAGLWIAGRHFDYWGQGTQVTVSS
B27: FJ1427 P035MP02D02 (VHH)
VHH: QVQLVESGGGLVQVGGSLSVSCAASGRSFDSITMAYFRQAPGNEREFIAGINFSGSRTAYGDSVKGRFTISRDNAKNTVFLQMNSLNPEDTAVYYCAASPRGFYGPGHALYDYWGQGTQVTVSS
B28: FJ1427 P035MP02E02 (VHH)
VHH: B5 VHH with E58K, F106S
B29: FJ1427 P035MP02F02 (VHH)
VHH: EVQLVESGGGLVQAGGSLRLACALSGDVFVRYTMAWFRQAPGKEREFVASVTDSGRTTDYVASVQGRFTVSRDNNKNTVYLQMNSLKPEDTAVYYCAANTDYFQIRSLDRNTWGQGTQVTVSS
B30: FJ1427 P035MP02G02 (VHH)
VHH: B16 VHH with T14P, V23A, V24A, A57V, Y79T, S106F, T113I, S118T
B31: FJ1427_P035MP02A03 (VHH)
VHH: QVQLVESGGGLVQPGGSLRLSCAASGFTFSNYAMSWVRQAPGKGLEWVSSITGAGRGTYYAESVKGRFTISRDNDKNTLYLQMNSLKPEDTAVYYCAKYDSSTFYPPTPARGIADRGQGTRVTVSS
B32: FJ1427_P035MP02B03 (VHH)
VHH: B26 VHH with P14T, N73S, M74G, F79Y
B33: FJ1427_P035MP02D03 (VHH)
VHH: QVQLVESGGGLVQAGGPLRLSCAASGGTFSSYAMGWFRQAPGKEREFVAATTRGGGRTMYAVSTEGRFTCSRDNAKNTVYLLMNSLKPEDTAVYYCAAMTSYYSGTYYPDSSDFDIWGQGTQVTVSS

Target: T1, mouse IL-2Rβ (mouse)
Assay: P.E. binding ELISA on coated protein

Point of comparison: B1, P.E. binding ELISA OD 0.047 OD450 nm. Against it:
- B2 — higher, 0.049 OD450 nm

Target: T1, mouse IL-2Rβ (mouse)
Assay: P.E. ELISA, coated protein

Point of comparison: B8, P.E. binding ELISA OD 0.047 OD450 nm. Against it:
- B3 — the same, 0.047 OD450 nm
- B4 — higher, 0.048 OD450 nm
- B5 — the same, 0.047 OD450 nm
- B6 — higher, 0.048 OD450 nm
- B7 — higher, 0.048 OD450 nm
- B9 — higher, 0.048 OD450 nm
- B10 — higher, 0.049 OD450 nm
- B11 — higher, 0.048 OD450 nm
- B12 — higher, 0.05 OD450 nm
- B13 — higher, 0.048 OD450 nm
- B14 — lower, 0.046 OD450 nm
- B15 — the same, 0.047 OD450 nm
- B16 — higher, 0.048 OD450 nm
- B17 — higher, 0.048 OD450 nm
- B18 — the same, 0.047 OD450 nm
- B19 — higher, 0.048 OD450 nm
- B20 — higher, 0.049 OD450 nm
- B21 — higher, 0.048 OD450 nm
- B22 — higher, 0.049 OD450 nm
- B23 — higher, 0.051 OD450 nm
- B24 — higher, 0.049 OD450 nm
- B25 — higher, 0.048 OD450 nm
- B26 — higher, 0.048 OD450 nm
- B27 — higher, 0.048 OD450 nm
- B28 — higher, 0.049 OD450 nm
- B29 — higher, 0.052 OD450 nm
- B30 — higher, 0.049 OD450 nm
- B31 — higher, 0.048 OD450 nm
- B32 — higher, 0.048 OD450 nm
- B33 — higher, 0.048 OD450 nm

From US20240409645A1
